From patent US9809653B2, “Anti-LAMP1 antibodies and antibody drug conjugates, and uses thereof” (SANOFI, priority 2012, dated 2017)

T1: human LAMP1 expressed at the cell surface of recombinant HCT116 (HCT116 huLAMP1 clone 8) (Homo sapiens, UniProt P11279)
T1 construct: full length human and cynomolgus monkey LAMP1 expressed at the cell surface of a recombinant cell line, wherein the cell line may be HCT116; expressed in transfected cells
T1 sequence (P11279 29-417): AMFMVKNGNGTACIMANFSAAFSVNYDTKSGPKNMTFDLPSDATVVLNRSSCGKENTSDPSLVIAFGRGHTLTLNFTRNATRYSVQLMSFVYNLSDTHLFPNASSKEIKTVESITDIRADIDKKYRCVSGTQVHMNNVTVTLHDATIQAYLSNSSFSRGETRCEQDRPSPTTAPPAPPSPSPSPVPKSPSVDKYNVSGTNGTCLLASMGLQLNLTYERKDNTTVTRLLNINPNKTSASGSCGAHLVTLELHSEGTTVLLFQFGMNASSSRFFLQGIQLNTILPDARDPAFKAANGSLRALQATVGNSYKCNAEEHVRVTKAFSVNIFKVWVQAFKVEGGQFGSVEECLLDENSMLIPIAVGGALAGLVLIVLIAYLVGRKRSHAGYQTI


Key:
[1] = system: Colon Colo205 tumoral cells expressing LAMP1; experiment: Internalization score by ImageStream multispectral imaging flow cytometer; format: cell-based, human; settings: Colo205, 10 μg/ml AlexaFluor488-labeled antibody
Excerpt: The internalization score (IS) is defined as a ratio of the fluorescence intensity inside the cell to the intensity of the entire cell. […] The higher the score, the greater the fluorescence intensity is inside the cell. As described by Amnis (see the world wide web at amnis.com), the inside of the cell is defined by an erosion of a mask that fits the membrane of the cell. The score is invariant to cell size and can accommodate concentrated bright regions and small dim spots. The ratio is mapped to a logarithmic scale to increase the dynamic range to values between {−inf, inf}. The thickness of the membrane (in pixels) determines which pixels are used to define the boundary and the membrane portions of the cell. The user supplies an ‘internal’ mask based on the brightfield image that covers the inside of the cell, the thickness of the membrane in pixels and the fluorescent channel of interest. The cell is divided into 2 regions: External (B) and internal (I). The user supplies the internal region as the mask. The external region is determined by: 1. Dilating the internal mask by the membrane thickness. 2. Combining 1 with the object mask of the channel of interest. 3. External region equals mask 2 and not the internal mask. Next, the mean intensity of the upper quartile of the pixels in each region is determined. The Internalization Score (IS) is then computed as follows:
Cells were washed by centrifugation with PBS 1% BSA at 400 g for 5 minutes. Cells were fixed and permeabilized using 100 μL of Perm/Fix buffer on ice for 20 minutes. Cells were washed by centrifugation with 1 mL of Perm/Wash Cell buffer at 400 g for 5 minutes.
To test whether internalized antibodies accumulate in lysosomes, simultaneous uptake of mAbs and AlexaFluor647-labeled CD107a (a lysosomal marker) were carried out. […] After incubation, 1 mL Perm/Wash Cell buffer was added to wash, before centrifuging (400 g, 5 min). The supernatant was flicked from the plate before the cells were fixed with 200 μL 1% formaldehyde on ice for 20 minutes. The fluorescence of cells was analyzed with the ImageStream multispectral imaging flow cytometer (Amnis corp.) using the Internalization feature. Five thousand events were acquired for each experimental condition and the corresponding images were analyzed using the IDEAS image-analysis software.

[2] = target: T1, human LAMP1 expressed at the cell surface of recombinant HCT116 (HCT116 huLAMP1 clone 8); experiment: FACS on recombinant HCT116 stable clones expressing human LAMP1; format: binding
Description: HCT116 cells were infected by a lentiviral vector allowing stable integration of the human or the cynomolgus LAMP1 CDS in genomic DNA of cells. Individual clones with different densities of human or cynomolgus LAMP1 cell surface localization were derived from a pool of HCT116 infected cells. […] 100 μL/well of goat anti-human IgG conjugated with Alexa488 (Invitrogen; #A11013) was added for 1 h at 4° C. and washed two times with PBS 1% BSA. The antibody binding was evaluated after centrifugation and resuspension of cells in 100 μl fixing solution (paraformaldehyde at 4% in PBS). Samples were read using Galaxy® Flow Cytometry System (Partec). EC50 values were estimated using BIOST@T-SPEED software.
100 μL/well of goat anti-mouse IgG conjugated with Alexa647 (Invitrogen; #A2135) was added for 45 min at 4° C. and washed three times with PBS 1% BSA. The antibody binding was evaluated after centrifugation and re-suspension of cells by adding 200 μl/well PBS 1% BSA and read using Guava® easyCyte™ 8HT Flow Cytometry System. EC50 values were estimated using BIOST@T-SPEED software.
HCT116 stable clone was obtained as described above. […]
DM4-SPDB-huMAb1_1 was assessed by flow cytometry for its ability to bind to human LAMP1 or cynomolgus LAMP1 proteins expressed respectively at the surface of HCT116 or HEK293 stable clones, both obtained as described in the protocol of example 4.7. […]

Molecule | Internalization score (IS) 4° C., 4 hr [1] | Internalization score (IS) 37° C., 4 hr [1] | EC50 [2] [nM]
MAb1: murine monoclonal anti-LAMP1 antibody, VH SEQ ID NO: 1, VL SEQ ID NO: 5 (antibody, V domains shown, Antibody Fragment; antibody fragment) VH: QVQLQQSGAELVKPGASVKMSCKASGYIFTNYNIHWVKKSPGQGLEWIGAIYPGNGDAPYSQKFKDKATLTADKSSSTTYMQLSRLTSEDSAVYYCVRANWDVAFAYWGQGTLVSVSA VL: DIQMTQSPPSLSASLGGKVTITCKASQDIDRYMAWYQDKPGKGPRLLIHDTSTLQPGIPSRFSGSGSGRDYSFSISNLEPEDIATYYCLQYDNLWTFGGGTKLEIK | 0.22 | 2.22 | 4.9
MAb2: murine monoclonal anti-LAMP1 antibody, VH SEQ ID NO: 8, VL SEQ ID NO: 12 (antibody, V domains shown, antibod fragment; antibody fragment) VH: QVQLQQSAAELARPGASVKMSCKASGYTFTSYTMHWVKQRPGQGLEWIGYFNPSSGYPEYNQKFKDKTTLTADKSSNTAFIQLNSLTSEDSAVYYCSRGYYYGSRGYALDFWGQGASVTVSS VL: NIVLTQSPVSLAVSLGQRATISCRASESVDINGNTFMHWYQQKPGQSPKLVIYAASNIESGVPARFSGSGSSTDFTFTIDPVEADDVATYYCQQNIEDPWTFGGGTKVEIK | 0.19 | 2.24 | 6.3
